Target: SNAP-tagged human melanocortin-4 receptor (SNAP-MC4R) (human) (UniProt P32245)
UniProt P32245, sequence (P32245 whole entry): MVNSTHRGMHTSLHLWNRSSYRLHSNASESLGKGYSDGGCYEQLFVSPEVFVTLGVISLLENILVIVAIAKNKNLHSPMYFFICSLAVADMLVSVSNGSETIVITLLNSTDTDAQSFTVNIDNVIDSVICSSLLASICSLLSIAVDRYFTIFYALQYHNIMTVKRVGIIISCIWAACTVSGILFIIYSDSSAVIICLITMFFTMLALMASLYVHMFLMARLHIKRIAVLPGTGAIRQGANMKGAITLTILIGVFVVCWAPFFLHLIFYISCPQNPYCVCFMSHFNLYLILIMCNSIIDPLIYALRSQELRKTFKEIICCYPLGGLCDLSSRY

- EC50 of α-MSH-stimulated cAMP production (Epac-S^H187 FRET biosensor, HEK293), MC4R + mock: 4.5 nM
- EC50 of α-MSH-stimulated cAMP production (Epac-S^H187 FRET biosensor, HEK293), MC4R co-expressed with MRAP2 (1 + 1 or 1 + 4): 1.3 nM
Substance: α-MSH (peptide)

From article PMC12462500
